Source: the domain aggregation screens of Martell et al. (2025)

Experiment: soluble fraction after stress (log2 fold change); higher = more stays soluble; pooled small domains, quantitative proteomics
Details: stress: 75 degC
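Note: 20 min heating vs room temperature control held 20 min.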

Sequence: HMSGRSVSYSEFMSRVEAGQVSSVTLDGERVEVTGSDGSRYVTIAPSDATLTDKLVAKGVEVRADP
- soluble fraction (log2): 0.462

Sequence: HMSGSKEQQIVILNNILERQLQAFGLQGNREFPMVTLKNIYNSLSKIIENAGLKNVENYFVNPEQGKQM
- soluble fraction (log2): -0.0735

Sequence: HMSGTFIGGELVKPGEPLTPMQRAAITMGLQMGNTYSPEIMEKYNNAGGSPSKEEFENYQKNKS
- soluble fraction (log2): 0.216

Sequence: HMSHGFFELKTTQKEALIKLLDSHPNFTHTKTEADLTTAFLKLPMDAEQFNKLLFTNGIVLSHLVKRK
- soluble fraction (log2): -0.581

Sequence: HMSHGYVEMQAKDDQVLLAALKNHPWFEKVSIDEETGLTKAILTQPIEAEELNSMLFEKGIVLSHLVKRK
- soluble fraction (log2): 0.288

Sequence: HMSHISLGQRYKIEGYLQINLKRTQIAKEIGLPKKTVNQEIKRNSNPQTGIYKAEEAHQLYLDRMQKKRK
- soluble fraction (log2): -0.335

Sequence: HMSHKYKLTVPETGEGTRVDKFLSSALTELSRTRLKSLIEEGQVTLGGVKLTNPSHRVKSGDELNIEIPVP
- soluble fraction (log2): 0.018

Sequence: HMSHPNAPLTPEGRRRLAVLIVEDGWTIRRAAERFQVSPATASKWARRYRAGESLTDRSSRP
- soluble fraction (log2): -1.85

Sequence: HMSHSDMEEWTDAVRSRRKKLGLTQVQIARRLGVTSHHFSQIESGRTIPSASLQIEIDRLLKNWND
- soluble fraction (log2): -1.73

Sequence: HMSHSVLIDISQLRIGMYIQLDVGWMHHPFPVSSFRVASLEQIEALRTLNLAQVRYFPAKSDPV
- soluble fraction (log2): -3.51

Sequence: HMSIAEMSGARKSAILLLALDEDSAAEIFKYLSAGEVQEISMEMAKLNQVSHDDMKAVLEAFHKETEEFV
- soluble fraction (log2): -0.821

Sequence: HMSIAKIIGDRIRAYRNQKGWSQEYLAEKADVHHTYIGQLERGEKNATIESISKIAGALGVSLSRLFEN
- soluble fraction (log2): -0.659

Sequence: HMSIEHVPGYTTLSKREQEIVHALLTRKTPEELADDLSISINTLNKHISHIYHKLGIRGRMQLFDYA
- soluble fraction (log2): -1.1

Sequence: HMSIEIKTIDVKHADLFQLQDILRNLYPELNIVPDQRNNKLILQGKRELLVEAERLTLQLDTE
- soluble fraction (log2): 0.248

Sequence: HMSIESPEEFNAKFPPGSEIYATNIQKNAIVQSPANAKGDVEILANSMRLTINFRFISKRDT
- soluble fraction (log2): -1.6

Sequence: HMSIGPQMAGRRVLSGDLIARLEAFEGTVVLGRGVAREDALLIATQAGHVRWEPASRRLWVDSTA
- soluble fraction (log2): -2.38

Sequence: HMSIHPRDKADLGTALSKWKKGALDDKQLELEVARVFMRTYGKKLEGQALNKAVAAWVAALTQSKK
- soluble fraction (log2): -0.171

Sequence: HMSINIDEEKKILGPNADQIIKGITTWGQGLVSKGIWSDADFEEFKIFAATGNGINALNKVRKYY
- soluble fraction (log2): -0.338

Sequence: HMSIQMPDLSITPVTDAKKKIESLQLQYKEVGEYNDSVIAGYVIRTEPASGSYLNEDEEVIIYVSKG
- soluble fraction (log2): -0.776

Sequence: HMSISEFNYTEFNGLVEKGQVSEVTISGREIEGRLTSGESFKTYSPETDNSALVGDLLKNNVKINGKP
- soluble fraction (log2): 0.0159

Sequence: HMSITKDNLSIGTNIRISGFSDIGRIISIPNKGNQVQVQIGSAKMNIKINSIVEIIKEEKDFNKNISN
- soluble fraction (log2): -1.48

Sequence: HMSIYMNIYNEFKKYIIANVYKYDDKLPSVRSIALEYGINPNTVQRAFQLLEDEGYIKTISKKGVYVNYR
- soluble fraction (log2): -0.745

Sequence: HMSKAYLSVESNISGARVFVDGQKEGTTPLSDVLLSAGEHLILVKKQGYETYQKRVRFQKGRSMSLYVDLS
- soluble fraction (log2): -0.0864

Sequence: HMSKDQKKFFIEIVSIRGFGSQIGISILNKLSIPQIINAIKTQNKKEISSIPGIGQKMTERLILELNNKFK
- soluble fraction (log2): -0.183

Sequence: HMSKININTITESELKELPISTVKQKAIQDYLIDRGFISNIYDLLDIKEITSDDVSLLKKVVNVKLPY
- soluble fraction (log2): -0.489

Sequence: HMSKIVPVAYSQFLKDVKNGNVSQVEIRGNNIKGINNNGSSFSTYAPNDLSLIDKLEKSNVEIIVMPLE
- soluble fraction (log2): -0.368

Sequence: HMSKKLLVLQTSDDAKAKDVLSQNGYQLDDGDKLSIIETEQTKMADVIKLLSDNAIDIEDVQHVH
- soluble fraction (log2): 0.14

Sequence: HMSKLQETEIPVALEVEKIPGLSNELKQKLLKIKPQTIGQASRISGITPAAISILMIYIKKNESISAVK
- soluble fraction (log2): -1.9

Sequence: HMSKLQKTKYAGVYFTEDTQTRVKTYVARIVLAGIIDTEVVVGHSNDQHRTNAAIAYQRRLELIQEAKN
- soluble fraction (log2): -4

Sequence: HMSKLSLREIVKKFEEQIIQLHKRGLNHSEISREIVTKNSIDLGDSHIDSLRRAISVHLQTP
- soluble fraction (log2): -0.755

Sequence: HMSKPIREVAYETLKNAIVTGEIPAGSRIVETEYAERMHISRTPLREALRKLERDGLVEYVVRRGVVVRAF
- soluble fraction (log2): -1.63

Sequence: HMSKPTLTLKSNAYPYNLNGERINNYLGFTYIKKGATLNYQGSKRINGQNYYYIGDGAYIKNTTVGSTNN
- soluble fraction (log2): -1.23

Sequence: HMSKQDRRIRRTRRLLKESLIQLMQEKEFMNISVREVTERADLNRGTFYLHYQDTRHLLQDIENETL
- soluble fraction (log2): -3.3

Sequence: HMSKQEFVDRLRVSLSGKISPASVEDNARYYEDYINTHIRLGEPEEDVLEGLGDPRLIARSIVAAESV
- soluble fraction (log2): -0.0989

Sequence: HMSKQLGFKIKTARRKLNISQGDLSKKLEISPSYLNLIESGKRKVSTDLLMKASEILNLDLKKL
- soluble fraction (log2): -0.966

Sequence: HMSKQQFLDELAARLREEGAELLVAENLNFYRSYIEEEVAKGRSEEEVLAELGNPALIARSILDAAGF
- soluble fraction (log2): -0.219

Sequence: HMSKSIELMNEIKKYIEEYYLQYRQSPSTTKIAEAVGIARGTAYKYLVEMSERNMIEYDGQEISTEVTRKY
- soluble fraction (log2): -1.43

Sequence: HMSKSKSEIDKDPHFWSSLFQRIGEGESLRKIAKDSKIPKSTLWAWIRNDPQLALRYSEAQQ
- soluble fraction (log2): 0.0521

Sequence: HMSLAATLSPREIDTVRLIAVGSSNKEIARQLGIAETTVKIHVQHILRKLNLTSRVQVAVFANAEGII
- soluble fraction (log2): -0.931

Sequence: HMSLAISGRNQLHGIIEEVRSDGLLSQIYLRVGDQVLTAVITRDAVAELKLKRGDTAVAIMKSTEVMIARE
- soluble fraction (log2): 0.38

Sequence: HMSLDLERAVALLSLPRPVGNHPEDGELVEAGIGRYGPYVKHGSKYANLPDADEVFTIGMNRAVEVLAAK
- soluble fraction (log2): -0.109

Sequence: HMSLDTASDKELLGLIVSEPIATRVLDAFRTLDATLFRTTPAELAAAAGVSSEHAQKIKAVAEIAARMLKP
- soluble fraction (log2): -0.343

Sequence: HMSLEDYVIIKNKTVKVYETEFDGAPVVTSSSVGQKLILVEYNDNFAKILYRAKDGLDYVGYIKRKDVYVR
- soluble fraction (log2): -2.55

Sequence: HMSLLLTPREASVWASEYLGKKVTSNNIIYLLNYGKIANHSTDLKENLIDKNELKIYYDSTIKSQKH
- soluble fraction (log2): -0.755

Sequence: HMSLLQDRQRHEALAALGYYRGSVSAAWGAASVEALKAAQAALGVEVDGKWGPKTEDVIQAALGT
- soluble fraction (log2): -0.272

Sequence: HMSLLQTRQRHEALAALGFFKGDVAAEWSAASTEALRAAQASLGIRVDGKWGPQTEDAIGKALAERQG
- soluble fraction (log2): 0.0108

Sequence: HMSLLTIDELSQATGVSVRTLRYYVSSGVLDKPTGETRNARYGTHHLDQVRNIKKLQEEGLTLNRILEIKK
- soluble fraction (log2): -2.14

Sequence: HMSLNHDIWVQELKEKRSGYGISQSRLAIAAGMTRQYLSDIETGKVLPSAERKAAITEALERFNPD
- soluble fraction (log2): -0.348

Sequence: HMSLNNAHNTIFPRIIELMEMKQLENVLLIGGGIIPRKDIESLESSGVTKLYGPGTPVKETIEFITNWVK
- soluble fraction (log2): -0.216

Sequence: HMSLPKVLVPTDITVSQLAKYLEVDAIAIVKKLFGLGVVASLNQRLENEQMQLLGQEFGKDIIFTEN
- soluble fraction (log2): -1.39

Sequence: HMSLPTSDWKRALSLFDEALSLPPDARDAWLAHTIAREPAVSPLLQKLLGAHRRVETNDILATLPR
- soluble fraction (log2): -0.534

Sequence: HMSLQNTMANFAGGVLVLFLKPFKAGDYIVTKDGEGTVASIGLVYTTLLTIENKRIVIPNSSISNSPITN
- soluble fraction (log2): 0.159

Sequence: HMSLRGEKTYDEAHQKLIKSAVELFKNPLVSPEKITVSQIAKHAGVSVATAYNHFPENKLDIYGSIF
- soluble fraction (log2): -0.203

Sequence: HMSLRVIEIFGTPQQMSARISLMDGSVTDVKVGQSIPGTSYKVASITGNGVWIQNGTAVSYTHL
- soluble fraction (log2): -2.41

Sequence: HMSLSDADVERLLEVAIDIESLEEREGLYYQANESEPYSGWGKLMYDSGQVERLVPYKDGRWEGLWTIW
- soluble fraction (log2): -1.07
